Each sequence was assayed on Escherichia coli TOP10 (assay: shrunken log2 fold change of peptide-encoding DNA abundance (4.5 h post-induction vs induction); higher = less antimicrobial activity (less host growth inhibition)). Settings: time post-induction: 4.5 h; library: site-saturation at positions 5, 18, 19, 20.
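Further: peptides expressed intracellularly from a pBAD plasmid library in pooled LB shake-flask culture, induced with 0.3% L-arabinose, DNA abundance read by NGS, three biological replicates, DESeq2 with apeglm shrinkage.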

Sequence | shrunken log2 fold change
RRIRFRPPRLPRPRPRPECSPRP | 0.411
RRIRQRPPRLPRPRPRPQDYPRP | -0.685
RRIRFRPPRLPRPRPRPWGQPRP | 0.0397
RRIRLRPPRLPRPRPRPMIAPRP | -0.141
RRIRKRPPRLPRPRPRPWTPPRP | 0.246
RRIRFRPPRLPRPRPRPADSPRP | -0.187
RRIRVRPPRLPRPRPRPQPQPRP | 0.302
RRIRWRPPRLPRPRPRPESHPRP | 0.189
RRIRTRPPRLPRPRPRPMGVPRP | -0.174
RRIRGRPPRLPRPRPRPFAQPRP | 0.456
RRIRHRPPRLPRPRPRPYWAPRP | -0.186
RRIRRRPPRLPRPRPRPDMSPRP | -0.433
RRIRARPPRLPRPRPRPVQCPRP | 0.22
RRIRGRPPRLPRPRPRPGKPPRP | 0.516
RRIRGRPPRLPRPRPRPVWNPRP | 0.0596
RRIRLRPPRLPRPRPRPDMRPRP | -0.0825
RRIRSRPPRLPRPRPRPKTFPRP | -0.24
RRIRVRPPRLPRPRPRPPDVPRP | -0.286
RRIRERPPRLPRPRPRPAHFPRP | 0.0793
RRIRRRPPRLPRPRPRPNHHPRP | -0.25
RRIRKRPPRLPRPRPRPLHSPRP | 0.0787
RRIRTRPPRLPRPRPRPSVSPRP | -0.386
RRIRYRPPRLPRPRPRPGEIPRP | -0.0481
RRIRPRPPRLPRPRPRPVCSPRP | -0.168
RRIRTRPPRLPRPRPRPAQAPRP | -0.0199

Sequence | shrunken log2 fold change
RRIRCRPPRLPRPRPRPVRSPRP | 0.549
RRIRCRPPRLPRPRPRPAALPRP | 0.219
RRIRHRPPRLPRPRPRPYLRPRP | -0.173
RRIRRRPPRLPRPRPRPSARPRP | 0.349
RRIRFRPPRLPRPRPRPIYFPRP | -0.09
RRIRPRPPRLPRPRPRPWRRPRP | 0.142
RRIRARPPRLPRPRPRPKGKPRP | 1.12
RRIRHRPPRLPRPRPRPWHTPRP | -0.566
RRIRSRPPRLPRPRPRPCVEPRP | 0.0654
RRIRSRPPRLPRPRPRPLVTPRP | 0.0214
RRIRDRPPRLPRPRPRPDNCPRP | -0.000924
RRIRIRPPRLPRPRPRPFWCPRP | -0.014
RRIRYRPPRLPRPRPRPSHGPRP | -0.274
RRIRGRPPRLPRPRPRPEFEPRP | 0.612
RRIRQRPPRLPRPRPRPDIQPRP | 0.00127
RRIRVRPPRLPRPRPRPERHPRP | -0.0734
RRIRVRPPRLPRPRPRPDLMPRP | -0.00839
RRIRKRPPRLPRPRPRPPTKPRP | 0.12
RRIRFRPPRLPRPRPRPKEQPRP | -0.00277
RRIRYRPPRLPRPRPRPCYMPRP | 0.0232
RRIRIRPPRLPRPRPRPPVNPRP | -0.456
RRIRMRPPRLPRPRPRPDNIPRP | -0.184
RRIRPRPPRLPRPRPRPPQKPRP | 0.19
RRIRVRPPRLPRPRPRPFAQPRP | 0.0825
RRIRSRPPRLPRPRPRPYTAPRP | -0.752

Sequence | shrunken log2 fold change
RRIRMRPPRLPRPRPRPSNMPRP | -0.0931
RRIRLRPPRLPRPRPRPIYLPRP | -0.654
RRIRYRPPRLPRPRPRPTSRPRP | -0.0257
RRIRTRPPRLPRPRPRPGCNPRP | 0.0386
RRIRLRPPRLPRPRPRPWQKPRP | 0.0576
RRIRVRPPRLPRPRPRPTWYPRP | -0.0971
RRIRDRPPRLPRPRPRPTWAPRP | 0.168
RRIRERPPRLPRPRPRPSAFPRP | -0.089
RRIRYRPPRLPRPRPRPQVNPRP | -0.0568
RRIRNRPPRLPRPRPRPQCRPRP | -0.132
RRIRTRPPRLPRPRPRPSSEPRP | -0.0162
RRIRMRPPRLPRPRPRPPFQPRP | 0.202
RRIRGRPPRLPRPRPRPFQWPRP | -0.0859
RRIRIRPPRLPRPRPRPMHFPRP | -0.487
RRIRNRPPRLPRPRPRPFIAPRP | -0.32
RRIRSRPPRLPRPRPRPSLIPRP | -0.0623
RRIRIRPPRLPRPRPRPCPKPRP | -0.564
RRIRFRPPRLPRPRPRPGCRPRP | 0.00327
RRIRDRPPRLPRPRPRPEHPPRP | 0.054
RRIRERPPRLPRPRPRPIKSPRP | -0.611
RRIRERPPRLPRPRPRPQRLPRP | 0.202
RRIRDRPPRLPRPRPRPTLLPRP | 0.758
RRIRDRPPRLPRPRPRPLPDPRP | 0.701
RRIRIRPPRLPRPRPRPSVTPRP | -0.781
RRIRARPPRLPRPRPRPNLFPRP | -0.0329

Sequence | shrunken log2 fold change
RRIRSRPPRLPRPRPRPSSPPRP | -0.561
RRIRKRPPRLPRPRPRPMMDPRP | 0.0443
RRIRRRPPRLPRPRPRPDGMPRP | 0.0388
RRIRNRPPRLPRPRPRPHYFPRP | -0.0132
RRIRCRPPRLPRPRPRPDFDPRP | -0.0217
RRIRKRPPRLPRPRPRPTPWPRP | 0.798
RRIRIRPPRLPRPRPRPRHQPRP | -0.289
RRIRYRPPRLPRPRPRPQVHPRP | -0.0163
RRIRHRPPRLPRPRPRPSAQPRP | 0.127
RRIRCRPPRLPRPRPRPISLPRP | -0.426
RRIRTRPPRLPRPRPRPCMFPRP | -0.515
RRIRRRPPRLPRPRPRPDGKPRP | 0.0432
RRIRERPPRLPRPRPRPIFKPRP | 0.138
RRIRRRPPRLPRPRPRPAKEPRP | 0.0389
RRIRHRPPRLPRPRPRPLGAPRP | -0.0242
RRIRFRPPRLPRPRPRPLMNPRP | -0.607
RRIRKRPPRLPRPRPRPNFQPRP | 0.287
RRIRIRPPRLPRPRPRPHHTPRP | -0.677
RRIRCRPPRLPRPRPRPNMMPRP | -0.475
RRIRRRPPRLPRPRPRPQYSPRP | -0.108
RRIRRRPPRLPRPRPRPHSGPRP | 0.0307
RRIRQRPPRLPRPRPRPQAIPRP | 0.0712
RRIRIRPPRLPRPRPRPYWKPRP | -0.0289
RRIRVRPPRLPRPRPRPWEPPRP | 0.13
RRIRERPPRLPRPRPRPASLPRP | 0.0301

Sequence | shrunken log2 fold change
RRIRKRPPRLPRPRPRPGENPRP | 0.318
RRIRQRPPRLPRPRPRPNFMPRP | 0.0789
RRIRDRPPRLPRPRPRPWRNPRP | -0.0018
RRIRERPPRLPRPRPRPAMCPRP | -0.456
RRIRLRPPRLPRPRPRPFYNPRP | -0.584
RRIRYRPPRLPRPRPRPPNGPRP | 3.11
RRIRGRPPRLPRPRPRPQKRPRP | 0.662
RRIRMRPPRLPRPRPRPCFQPRP | -0.0397
RRIRARPPRLPRPRPRPRGSPRP | 0.708
RRIRKRPPRLPRPRPRPKHIPRP | -0.0252
RRIRERPPRLPRPRPRPYHEPRP | -3.17
RRIRRRPPRLPRPRPRPVVRPRP | 0.274
RRIRCRPPRLPRPRPRPMYRPRP | -0.319
RRIRERPPRLPRPRPRPVWRPRP | 0.202
RRIRRRPPRLPRPRPRPGTSPRP | 0.0636
RRIRCRPPRLPRPRPRPQFYPRP | -0.782
RRIRERPPRLPRPRPRPGYQPRP | -0.00905
RRIRERPPRLPRPRPRPICEPRP | 0.0105
RRIRYRPPRLPRPRPRPMPSPRP | 0.0101
RRIRYRPPRLPRPRPRPRKNPRP | -0.268
RRIRQRPPRLPRPRPRPSQKPRP | 0.0595
RRIRSRPPRLPRPRPRPMFYPRP | -0.544
RRIRLRPPRLPRPRPRPLVGPRP | 0.246
RRIRSRPPRLPRPRPRPVDEPRP | -0.216
RRIRCRPPRLPRPRPRPYFVPRP | -1.13

Sequence | shrunken log2 fold change
RRIRSRPPRLPRPRPRPSDIPRP | -0.516
RRIRIRPPRLPRPRPRPWFLPRP | -0.802
RRIRSRPPRLPRPRPRPMVPPRP | -0.0173
RRIRFRPPRLPRPRPRPPCWPRP | 0.478
RRIRYRPPRLPRPRPRPRGRPRP | 0.142
RRIRNRPPRLPRPRPRPESWPRP | 0.362
RRIRCRPPRLPRPRPRPPQWPRP | 0.446
RRIRARPPRLPRPRPRPYAMPRP | 0.0392
RRIRQRPPRLPRPRPRPLGNPRP | -0.263
RRIRRRPPRLPRPRPRPGLKPRP | 0.377
RRIRIRPPRLPRPRPRPWVMPRP | -0.152
RRIRTRPPRLPRPRPRPPFVPRP | 0.227
RRIRDRPPRLPRPRPRPIDGPRP | 0.0392
RRIRFRPPRLPRPRPRPTMHPRP | -0.138
RRIRVRPPRLPRPRPRPQGHPRP | -0.177
RRIRFRPPRLPRPRPRPGWNPRP | 0.0411
RRIRMRPPRLPRPRPRPLLWPRP | 0.914
RRIRMRPPRLPRPRPRPGPMPRP | 1.05
RRIRSRPPRLPRPRPRPELVPRP | 0.111
RRIRARPPRLPRPRPRPWHPPRP | -0.00894
RRIRQRPPRLPRPRPRPNMPPRP | -0.634
RRIRKRPPRLPRPRPRPTWPPRP | 0.766
RRIRYRPPRLPRPRPRPREPPRP | 0.419
RRIRSRPPRLPRPRPRPTRHPRP | 0.227
RRIRSRPPRLPRPRPRPSYDPRP | -0.609
